Assay results as given in the supplement of paper PMC10065799, “High-throughput profiling of sequence recognition by tyrosine kinases and SH2 domains using bacterial peptide display” (eLife, 2023).

What follows are sequences tested against SHP2-C SH2 (assay: SH2 binding enrichment of the phosphorylated peptide, bacterial display (enrichment ratio); higher = better substrate or ligand; peptides without Tyr show the background).
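Wherever SH2 binding enrichment of the phosphorylated peptide, bacterial display is given: peptide library displayed on the E. coli surface as eCPX fusions, selected cells deep-sequenced, score is each peptide's frequency after selection divided by its frequency in the input.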
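Wherever phosphorylation enrichment, bacterial display is given: 11-residue human phosphosite peptides and single-mutation variants displayed on the E. coli surface, counted by deep sequencing, each peptide's frequency after selection divided by its frequency in the unselected input library; frequency after pTyr selection over input frequency; kinase dosed for 20-30% of maximal phosphorylation in three min.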

Sequence | SH2 binding enrichment
QMVGMYASSSM [AVPR2_Y124_Y128S] | 0.756
EFAAGYNVKFD [GPX4_Y123] | 0.727
HHTDECEYDEL [TGM1_Y134_Y134C] | 0.764
TNITEYCRDLI [RECQL_Y492_K487T] | 0.6
EQDRAYLEGTC [HLA-C_Y183_L180D] | 0.868
LSEEKYELKEG [TREM1_Y29_T25S] | 0.603
VHSGTYQVTVC [MYBPC3_Y1043_R1048C] | 0.599
TIEDSYRKQVV [KRAS_Y40] | 0.6
RICRRYCQVLN [IQCF1_Y144_R141C] | 0.76
VLICAYLLHRG [PTEN_Y138_M134L] | 1.31
TLEKFYFAFPG [SLC1A1_Y51] | 0.92
HFPFQCHRQLY [F12_Y53_Y53C] | 1.15
AHAGGYGAEAL [HBA1_Y25_E24G] | 0.546
YKEQGYHRLPP [RIN1_Y681] | 0.917
RAHARYCADAR [ACOT4_Y52] | 0.746
CPPKVYELMIA [ABL2_Y515_R519I] | 0.658
FTFTSYFMHWV [IGHV1-46_Y51_YF] | 1.19

Sequence | SH2 binding enrichment
IRTGIYHGGEP [PIK3CA_Y361_V356I] | 0.585
CENNRYGMGAS [PDHA1_Y227_T231A] | 0.723
LDLSYYPTSSS [EMD_Y182] | 0.66
EQKKYYNAMKK [SCN5A_Y1495] | 1.07
MSSLYYANALF [HOXB7_Y6_T9A] | 1.36
QAQMDYRRLQP [MPL_Y591] | 0.63
DAKTIYDFTDT [PDK1_Y136_A134T] | 0.58
IHTEFYDGLFP [BCR_Y561_K558T] | 0.459
PLKFLYPNIDK [STAT1_Y668_YF] | 0.647
QTPVLYAMLFH [MPZ_Y220_D224Y_YF] | 0.778
DPLASYLDKVR [KRT10_Y160_R156P] | 0.767
TVEDHDFEGGI [TKT_Y563_Y563D_YF] | 0.515
NRNVRYLTLDI [AKR1C2_Y305] | 6.75
NKHTTYTMEHI [ACTN1_Y708_N707T] | 0.787
AMCVCYDGVEV [ADAMTSL2_Y594_R593C] | 0.589
RQNQEYEILMD [KRT39_Y379_L383M] | 0.556

The sequences below were run against Grb2 SH2 (UniProt P62993) in the same assay as above.
Chain of Grb2 SH2 (P62993 whole entry, looked up): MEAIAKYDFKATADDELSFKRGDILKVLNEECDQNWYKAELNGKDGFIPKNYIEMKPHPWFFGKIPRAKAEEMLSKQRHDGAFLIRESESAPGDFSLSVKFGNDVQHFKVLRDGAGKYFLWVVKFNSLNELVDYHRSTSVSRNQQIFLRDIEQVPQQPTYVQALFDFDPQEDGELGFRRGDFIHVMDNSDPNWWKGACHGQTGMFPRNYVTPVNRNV

Sequence | SH2 binding enrichment
QMVGMYASSSM [AVPR2_Y124_Y128S] | 0.869
EFAAGYNVKFD [GPX4_Y123] | 0.707
HHTDECEYDEL [TGM1_Y134_Y134C] | 1.21
TNITEYCRDLI [RECQL_Y492_K487T] | 0.759
EQDRAYLEGTC [HLA-C_Y183_L180D] | 0.939
LSEEKYELKEG [TREM1_Y29_T25S] | 0.713
VHSGTYQVTVC [MYBPC3_Y1043_R1048C] | 0.694
TIEDSYRKQVV [KRAS_Y40] | 0.818
RICRRYCQVLN [IQCF1_Y144_R141C] | 0.537
VLICAYLLHRG [PTEN_Y138_M134L] | 1.11
TLEKFYFAFPG [SLC1A1_Y51] | 1
HFPFQCHRQLY [F12_Y53_Y53C] | 1.21
AHAGGYGAEAL [HBA1_Y25_E24G] | 0.905
YKEQGYHRLPP [RIN1_Y681] | 1.11
RAHARYCADAR [ACOT4_Y52] | 0.92
CPPKVYELMIA [ABL2_Y515_R519I] | 0.817
FTFTSYFMHWV [IGHV1-46_Y51_YF] | 1.71

Sequence | SH2 binding enrichment
IRTGIYHGGEP [PIK3CA_Y361_V356I] | 0.751
CENNRYGMGAS [PDHA1_Y227_T231A] | 0.849
LDLSYYPTSSS [EMD_Y182] | 0.853
EQKKYYNAMKK [SCN5A_Y1495] | 0.818
MSSLYYANALF [HOXB7_Y6_T9A] | 4.61
QAQMDYRRLQP [MPL_Y591] | 0.819
DAKTIYDFTDT [PDK1_Y136_A134T] | 0.748
IHTEFYDGLFP [BCR_Y561_K558T] | 0.82
PLKFLYPNIDK [STAT1_Y668_YF] | 0.714
QTPVLYAMLFH [MPZ_Y220_D224Y_YF] | 1.03
DPLASYLDKVR [KRT10_Y160_R156P] | 0.864
TVEDHDFEGGI [TKT_Y563_Y563D_YF] | 0.737
NRNVRYLTLDI [AKR1C2_Y305] | 1.03
NKHTTYTMEHI [ACTN1_Y708_N707T] | 0.865
AMCVCYDGVEV [ADAMTSL2_Y594_R593C] | 0.736
RQNQEYEILMD [KRT39_Y379_L383M] | 0.843

Each sequence was assayed against c-Src SH2 in the same assay as above.

Sequence | SH2 binding enrichment
QMVGMYASSSM [AVPR2_Y124_Y128S] | 0.685
EFAAGYNVKFD [GPX4_Y123] | 0.503
HHTDECEYDEL [TGM1_Y134_Y134C] | 0.516
TNITEYCRDLI [RECQL_Y492_K487T] | 0.537
EQDRAYLEGTC [HLA-C_Y183_L180D] | 0.771
LSEEKYELKEG [TREM1_Y29_T25S] | 0.391
VHSGTYQVTVC [MYBPC3_Y1043_R1048C] | 0.517
TIEDSYRKQVV [KRAS_Y40] | 0.428
RICRRYCQVLN [IQCF1_Y144_R141C] | 0.329
VLICAYLLHRG [PTEN_Y138_M134L] | 1.09
TLEKFYFAFPG [SLC1A1_Y51] | 0.589
HFPFQCHRQLY [F12_Y53_Y53C] | 1.16
AHAGGYGAEAL [HBA1_Y25_E24G] | 0.433
YKEQGYHRLPP [RIN1_Y681] | 0.904
RAHARYCADAR [ACOT4_Y52] | 0.656
CPPKVYELMIA [ABL2_Y515_R519I] | 1.44
FTFTSYFMHWV [IGHV1-46_Y51_YF] | 1.03

Sequence | SH2 binding enrichment
IRTGIYHGGEP [PIK3CA_Y361_V356I] | 0.364
CENNRYGMGAS [PDHA1_Y227_T231A] | 0.457
LDLSYYPTSSS [EMD_Y182] | 1.24
EQKKYYNAMKK [SCN5A_Y1495] | 0.85
MSSLYYANALF [HOXB7_Y6_T9A] | 2.08
QAQMDYRRLQP [MPL_Y591] | 0.319
DAKTIYDFTDT [PDK1_Y136_A134T] | 0.46
IHTEFYDGLFP [BCR_Y561_K558T] | 0.63
PLKFLYPNIDK [STAT1_Y668_YF] | 0.72
QTPVLYAMLFH [MPZ_Y220_D224Y_YF] | 0.601
DPLASYLDKVR [KRT10_Y160_R156P] | 0.545
TVEDHDFEGGI [TKT_Y563_Y563D_YF] | 0.422
NRNVRYLTLDI [AKR1C2_Y305] | 1.96
NKHTTYTMEHI [ACTN1_Y708_N707T] | 0.565
AMCVCYDGVEV [ADAMTSL2_Y594_R593C] | 0.815
RQNQEYEILMD [KRT39_Y379_L383M] | 0.835

Each sequence was assayed on Fer (mouse) (assay: phosphorylation enrichment, bacterial display (enrichment ratio); higher = better substrate or ligand; peptides without Tyr show the background).

Sequence | phosphorylation enrichment
QMVGMYASSSM [AVPR2_Y124_Y128S] | 0.472
EFAAGYNVKFD [GPX4_Y123] | 0.483
HHTDECEYDEL [TGM1_Y134_Y134C] | 0.729
TNITEYCRDLI [RECQL_Y492_K487T] | 0.491
EQDRAYLEGTC [HLA-C_Y183_L180D] | 0.499
LSEEKYELKEG [TREM1_Y29_T25S] | 0.627
VHSGTYQVTVC [MYBPC3_Y1043_R1048C] | 0.516
TIEDSYRKQVV [KRAS_Y40] | 0.348
RICRRYCQVLN [IQCF1_Y144_R141C] | 0.654
VLICAYLLHRG [PTEN_Y138_M134L] | 0.856
TLEKFYFAFPG [SLC1A1_Y51] | 0.496
HFPFQCHRQLY [F12_Y53_Y53C] | 0.385
AHAGGYGAEAL [HBA1_Y25_E24G] | 0.398
YKEQGYHRLPP [RIN1_Y681] | 0.365
RAHARYCADAR [ACOT4_Y52] | 0.333
CPPKVYELMIA [ABL2_Y515_R519I] | 7.5
FTFTSYFMHWV [IGHV1-46_Y51_YF] | 0.495

Sequence | phosphorylation enrichment
IRTGIYHGGEP [PIK3CA_Y361_V356I] | 0.399
CENNRYGMGAS [PDHA1_Y227_T231A] | 0.365
LDLSYYPTSSS [EMD_Y182] | 0.835
EQKKYYNAMKK [SCN5A_Y1495] | 0.353
MSSLYYANALF [HOXB7_Y6_T9A] | 5.14
QAQMDYRRLQP [MPL_Y591] | 0.48
DAKTIYDFTDT [PDK1_Y136_A134T] | 1.61
IHTEFYDGLFP [BCR_Y561_K558T] | 1.65
PLKFLYPNIDK [STAT1_Y668_YF] | 1.13
QTPVLYAMLFH [MPZ_Y220_D224Y_YF] | 6.25
DPLASYLDKVR [KRT10_Y160_R156P] | 0.455
TVEDHDFEGGI [TKT_Y563_Y563D_YF] | 0.525
NRNVRYLTLDI [AKR1C2_Y305] | 0.395
NKHTTYTMEHI [ACTN1_Y708_N707T] | 0.397
AMCVCYDGVEV [ADAMTSL2_Y594_R593C] | 1.41
RQNQEYEILMD [KRT39_Y379_L383M] | 0.705
